The supplement of paper PMC10724198
± gives the standard deviation of the averaged measurements.

What follows are sequences tested on Saccharomyces cerevisiae (assay: protein stability index of tFT-peptide fusion (C-terminal peptide) (PSI (0-1 scale)); higher = more stable (slower turnover)). Settings: genetic background: wild type; temperature: 30 C.
Procedure: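 Multiplexed protein stability (MPS) profiling in S. cerevisiae. Random 12-aa peptides (tFT-X12 library) are fused to the C-terminus of a sfGFP-mCherry tandem fluorescent timer, after mCherry and a GGGS linker. Cells are FACS-sorted into 8 mCherry/sfGFP bins and deep-sequenced. The protein stability index (PSI) is the read-weighted bin average, scaled from 0 (unstable) to 1 (stable). Only peptides with >10 reads are reported; cells were grown at 30 °C in SC-His with glucose.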
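Further: PSI is a weighted mean of sequencing reads over stability bins, variants kept only with over 10 reads, mCherry proximal and sfGFP distal, peptide attached via GGGS linker.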

Row | Sequence | protein stability index
1 | GGGAGKGPQTRG | 0.676 ± 0.062
2 | LPPSPILFPASP | 0.754 ± 0.072
3 | LFPLISPLQSER | 0.737 ± 0.026
4 | TPGGPLLHSGFL | 0.755 ± 0.085
5 | LFFLPSSSLSPL | 0.731 ± 0.022
6 | SHPPPPPSPPPR | 0.6922 ± 0.0051
7 | KQKKTKKTKKQN | 0.647 ± 0.044
8 | PSPCPPRPPPSP | 0.753 ± 0.1
9 | VLRSPHYRPRRE | 0.673 ± 0.055
10 | TGMRRLPGEVCV | 0.581 ± 0.017
11 | AERKTKASRRKE | 0.654 ± 0.019
12 | RALALVHRQRVG | 0.648 ± 0.096
13 | YADTCEGDNLTS | 0.661 ± 0.03
14 | GRPHRYWRVVPY | 0.68 ± 0.036
15 | FPHPSPPPFPPP | 0.698 ± 0.026
16 | YSLLSAHLVPIA | 0.614 ± 0.027
17 | PSPAPHIPIFFR | 0.742 ± 0.079
18 | DTFVFSWGVGWG | 0.76 ± 0.041
19 | GPGTSSSGLVFT | 0.692 ± 0.029
20 | PPLPPSPPCPPA | 0.642 ± 0.079
21 | KRSARRAGRATP | 0.761 ± 0.14
22 | PGMTILETTIMD | 0.691 ± 0.015
23 | GGSRRANRQMRK | 0.7148 ± 0.0045
24 | ALLRSLSSLPLV | 0.602 ± 0.011
25 | RCSFSYLPVIQV | 0.582 ± 0.006

Row | Sequence | protein stability index
26 | ILVHFQGVHTVL | 0.663 ± 0.018
27 | PLSSILSPSSPA | 0.729 ± 0.052
28 | PSPPLPPPAPLL | 0.718 ± 0.056
29 | GENLGGDVFNIG | 0.73 ± 0.0031
30 | HETRGKTEQNWM | 0.645 ± 0.053
31 | LSFFPPPLPPSS | 0.71 ± 0.044
32 | STEIHIKLNAWT | 0.687 ± 0.082
33 | APPDQPEEGTRA | 0.6332 ± 0.0033
34 | AARWHEPLSRER | 0.699 ± 0.029
35 | PSSRSASSSSPA | 0.705 ± 0.043
36 | PPSLLPFDPSLP | 0.708 ± 0.082
37 | VLDVRLGGRCGE | 0.702 ± 0.072
38 | PPPRPICCALNS | 0.655 ± 0.014
39 | AYICLSGLGRCI | 0.672 ± 0.03
40 | GIASKCFWFVCG | 0.645 ± 0.018
41 | PPPLACPSPPVT | 0.734 ± 0.12
42 | PHSLLPSSAPRN | 0.696 ± 0.024
43 | GSSQGCLICSIA | 0.649 ± 0.049
44 | ATPTSPSRPFLL | 0.707 ± 0.086
45 | KLVVFPYIRPSP | 0.709 ± 0.021
46 | KDLEIKKEKRKD | 0.666 ± 0.015
47 | WGLLCPLRSDNV | 0.705 ± 0.017
48 | EFPSGCSSVIVA | 0.655 ± 0.049
49 | RGTVPHSLDLYL | 0.679 ± 0.025
50 | LGRNLGKDPVEV | 0.593 ± 0.11

Row | Sequence | protein stability index
51 | DRGFSVGGGWGW | 0.676 ± 0.066
52 | HAISHRVFLHSP | 0.665 ± 0.025
53 | FFPPLPATSVPA | 0.561 ± 0.1
54 | TGDFFGGLGTWS | 0.701 ± 0.016
55 | SPCRSPPPDLPQ | 0.645 ± 0.1
56 | KTINKEQKKKEM | 0.7 ± 0.036
57 | WRLDDPTLISNI | 0.693 ± 0.032
58 | PLPLLPTNPSPP | 0.636 ± 0.0096
59 | GRLGSTRRPPSG | 0.701 ± 0.0095
60 | PRGPPGILSRPP | 0.6736 ± 0.00089
61 | AAPDSGTPPLAA | 0.6435 ± 0.0043
62 | SALFLVPRASWL | 0.659 ± 0.036
63 | GVFGFGARLCIG | 0.6782 ± 0.0043
64 | PLRPGILLNKLP | 0.646 ± 0.046
65 | APGACWKERWVR | 0.737 ± 0.037
66 | PYVAFMLPSPWQ | 0.672 ± 0.033
67 | VCVLGGVWGCRG | 0.66 ± 0.072
68 | EWVPDIANLRRR | 0.752 ± 0.16
69 | PPGPLPPLSSTP | 0.661 ± 0.034
70 | GATRCQTYPAGA | 0.686 ± 0.04
71 | RHSCLRFPPLHL | 0.694 ± 0.1
72 | TPMPSCNHRPED | 0.655 ± 0.03
73 | VTRRIPPRGGPR | 0.72 ± 0.074
74 | AIRLFFRSDARG | 0.618 ± 0.014
75 | VFGFLGSLASCR | 0.853 ± 0.2

Row | Sequence | protein stability index
76 | PLPPPAIPRLCA | 0.636 ± 0.029
77 | SPASIVPTLELA | 0.638 ± 0.024
78 | KVSKHIKTNDSI | 0.65 ± 0.02
79 | KCGLQRFREAIY | 0.61 ± 0.0084
80 | SASGARVEARMH | 0.6435 ± 0.0017
81 | PQPRDSLFSLGN | 0.691 ± 0.032
82 | SFSPSVLSREVS | 0.66 ± 0.066
83 | GCLSRLCKGKVM | 0.599 ± 0.033
84 | PPSPARFPPPSS | 0.632 ± 0.015
85 | SAPVPPSPPRPR | 0.8 ± 0.0089
86 | PPPASLTSPRQP | 0.731 ± 0.013
87 | KTNNQVDTSVKD | 0.645 ± 0.054
88 | PLAPSTPPNLSN | 0.643 ± 0.073
89 | SEPPPPTPPPLP | 0.679 ± 0.18
90 | CTSSVRARRRFR | 0.698 ± 0.043
91 | GCADNNRLGNVV | 0.66 ± 0.011
92 | KERKEKKKKKNK | 0.7227 ± 0.0045
93 | LRVTPYTPRSYP | 0.732 ± 0.058
94 | GAGGVGGTSGGK | 0.675 ± 0.084
95 | LKIDTCSQQEEN | 0.675 ± 0.11
96 | GWTLIFGRTSEG | 0.678 ± 0.023
97 | PAASPVDEKVRL | 0.633 ± 0.016
98 | AKTQGLLMVTLQ | 0.712 ± 0.12
99 | FLSFIADVTGKR | 0.707 ± 0.019
100 | QLNGTVTRPGDF | 0.7 ± 0.036

Row | Sequence | protein stability index
101 | KKNYNTKLTQHP | 0.683 ± 0.04
102 | PVKTHPPPPPLP | 0.724 ± 0.024
103 | GWSGWFSRVLRG | 0.726 ± 0.039
104 | PLPSPASPSPPP | 0.67 ± 0.12
105 | RNILMFSNGVDE | 0.681 ± 0.014
106 | VVRLEGGSGAVW | 0.703 ± 0.0085
107 | GGGGSVGGGALR | 0.651 ± 0.0088
108 | GRGRWRGGVAVE | 0.802 ± 0.13
109 | ARRAAPRRPPSD | 0.689 ± 0.047
110 | VNQSCPRPTPFV | 0.67 ± 0.051
111 | CQVVALYCFSLL | 0.62 ± 0.068
112 | GDLGPADRQPAG | 0.639 ± 0.027
113 | PLSPPPRPPPSP | 0.654 ± 0.066
114 | RGARVGKGDACW | 0.607 ± 0.069
115 | YLRGRCSSLSLR | 0.698 ± 0.036
116 | TKKKTKKKEQKE | 0.6627 ± 0.0027
117 | GTRVGRARGGRK | 0.835 ± 0.047
118 | LSPPPPPLPPPL | 0.622 ± 0.12
119 | HAQTNSNSQLLL | 0.677 ± 0.0076
120 | ATLGRCYSSNGL | 0.672 ± 0.031
121 | EWGGGGGGGKCV | 0.733 ± 0.054
122 | KKKKKRTKKNNH | 0.767 ± 0.11
123 | WGTDVGAGCVAR | 0.741 ± 0.027
124 | SPWWAPPSPPYP | 0.582 ± 0.015
125 | GGPRGPPMLIWE | 0.738 ± 0.037

Row | Sequence | protein stability index
126 | TVSGPKTNLGQA | 0.71 ± 0.14
127 | PSVLPSSCTPSP | 0.663 ± 0.03
128 | LARLPPPSLSRV | 0.713 ± 0.055
129 | KETLRMKFNSWK | 0.6764 ± 0.0043
130 | VFTGVGFVPLVC | 0.5757 ± 0.0034
131 | EVRDLSQFMKRY | 0.727 ± 0.0092
132 | EARGPGPVGGGT | 0.702 ± 0.085
133 | EDKKKKTKANDT | 0.669 ± 0.028
134 | FGCGLYPLRVLH | 0.604 ± 0.034
135 | LDPHPFRGHACC | 0.779 ± 0.3
136 | SNVRSRGAGISM | 0.729 ± 0.087
137 | GRPYEHVVDPWR | 0.733 ± 0.029
138 | GVGWRGGCEGGV | 0.711 ± 0.062
139 | KTTETVLRKRTK | 0.737 ± 0.049
140 | VAAFGGGPTNGV | 0.724 ± 0.013
141 | LAPPLILLPFVD | 0.699 ± 0.033
142 | LRFWCFGDVCPV | 0.754 ± 0.057
143 | SASSFGTLYCYS | 0.6966 ± 0.0019
144 | SLSRSFCRAHRS | 0.722 ± 0.047
145 | VGGGRFCGCLVV | 0.767 ± 0.015
146 | SLKELSYKGTLR | 0.65 ± 0.038
147 | WWGCRSVGVGLG | 0.675 ± 0.025
148 | TSRPLHEQTVSP | 0.677 ± 0.025
149 | GVRRPYRSDLRL | 0.678 ± 0.023
150 | HPMVFRLAAPRL | 0.779 ± 0.18

Row | Sequence | protein stability index
151 | SPQRAHLHHHPT | 0.654 ± 0.026
152 | TPTPGCYIASLT | 0.759 ± 0.21
153 | GIPWSVLLSSYW | 0.713 ± 0.033
154 | KVREGEARKEST | 0.6826 ± 0.0017
155 | PSPPVRPPLPPP | 0.652 ± 0.15
156 | PAPPLLPPPSPP | 0.63 ± 0.027
157 | LDPGPLVRTPRL | 0.692 ± 0.076
158 | KKKKKKKNKKQE | 0.7456 ± 0.005
159 | GLLSLPPRLPFL | 0.672 ± 0.073
160 | EKNKKKIERSTM | 0.684 ± 0.012
161 | FYLRRNILGQDC | 0.695 ± 0.0096
162 | AVHASTLCSSIG | 0.6659 ± 0.0043
163 | DIHLSRQKTRIL | 0.752 ± 0.17
164 | PLCPPPPVASFV | 0.64 ± 0.013
165 | PTFPPPPRTPPS | 0.719 ± 0.017
166 | SISSVFCTGRCH | 0.721 ± 0.19
167 | VWSWGEGGGAVV | 0.7 ± 0.035
168 | SKGECYSETDVA | 0.684 ± 0.018
169 | HHVDLHLSLPSP | 0.649 ± 0.032
170 | FPSPLLPYPLLP | 0.747 ± 0.052
171 | AGWKGGTSRGER | 0.6618 ± 0.0053
172 | RWGGWGYRGGVP | 0.752 ± 0.062
173 | RFAEEDFIVERT | 0.727 ± 0.019
174 | GIQIRIDNQKKN | 0.67 ± 0.025
175 | GWLCARGSSSRP | 0.649 ± 0.0067

Row | Sequence | protein stability index
176 | LQDLPRLHALPN | 0.727 ± 0.086
177 | SLRRPPPRSRNG | 0.654 ± 0.048
178 | VGWGLGGGVVLV | 0.675 ± 0.047
179 | PASRIGGALPGG | 0.604 ± 0.03
180 | SVIFSRSFCCPS | 0.639 ± 0.11
181 | QPYRQAKNQRLP | 0.728 ± 0.02
182 | CCSIVRSGAGDK | 0.748 ± 0.012
183 | LCCLSSLAMLFF | 0.7 ± 0.12
184 | SAIGVGGVGTGG | 0.633 ± 0.039
185 | PPPPAPSPPIPP | 0.692 ± 0.037
186 | QESGPEAGIPPL | 0.7222 ± 0.003
187 | NCEVYVGLVLAD | 0.597 ± 0.028
188 | LAAGPSERTART | 0.685 ± 0.052
189 | HLIQPDPRASNN | 0.751 ± 0.098
190 | GVGLDSMCVEGF | 0.723 ± 0.1
191 | VVGNGGWVEGEV | 0.621 ± 0.13
192 | VAGSGAGREAAY | 0.651 ± 0.0067
193 | VAGVLVFGKVGG | 0.694 ± 0.043
194 | ESSTGYSPPLPV | 0.666 ± 0.047
195 | NKKFTKQTCKPK | 0.663 ± 0.0011
196 | RGGGPTGARPAM | 0.711 ± 0.1
